Literature values in patent US20240401145A1, “METHOD FOR PREDICTING THE RESPONSE OF A PATIENT DIAGNOSED WITH CANCER TO TREATMENT AND/OR IMAGING WITH A COMPOUND TARGETING CCK2-R, AND COMPOUND FOR USE IN METHODS OF SELECTIVELY TREATING AND/OR IMAGING CANCER” (Paul Scherrer Institut, priority 2021, published 2024).
Ends that are not written are not given here.

Columns and labels:
CCK2-R = molecular target: T1, CCK2-R (Homo sapiens, UniProt P32239); conditions: known from prior art
T1 sequence (P32239 1-447): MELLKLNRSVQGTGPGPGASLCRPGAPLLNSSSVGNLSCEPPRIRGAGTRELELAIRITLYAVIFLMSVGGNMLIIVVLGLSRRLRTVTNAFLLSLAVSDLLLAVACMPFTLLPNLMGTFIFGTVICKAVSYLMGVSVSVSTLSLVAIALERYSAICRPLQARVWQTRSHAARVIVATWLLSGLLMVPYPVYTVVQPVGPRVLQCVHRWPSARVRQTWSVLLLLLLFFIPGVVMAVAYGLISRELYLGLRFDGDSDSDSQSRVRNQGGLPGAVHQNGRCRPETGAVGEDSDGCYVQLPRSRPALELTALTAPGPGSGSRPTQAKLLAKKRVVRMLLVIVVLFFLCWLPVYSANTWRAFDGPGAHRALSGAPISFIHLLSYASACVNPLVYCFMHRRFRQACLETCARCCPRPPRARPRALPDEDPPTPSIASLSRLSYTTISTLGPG

[1] = tested on: transplanted CCKBR-expressing A431 cells; conditions: biodistribution in animal models; reported from WO 2015/067473 A1
[2] = gastrin analogues labeled with a radionuclide such as 111In; reported from WO 2015/067473 A1

| affinity of binding to CCK2-R (CCK2-R) | Substance | accumulation in the kidneys [1] | uptake in transplanted CCKBR-expressing A431 cells [1] | chemical stability (resistance to proteolysis and oxidation) [2] |
| --- | --- | --- | --- | --- |
| high affinity | minigastrin: small peptide hormone known to bind CCK2-R with high affinity (WLEEEEEAYGWMDF; ends and bridges not checked; UniProt P01350 79-92, looked up) |  |  |  |
|  | DOTA-(DGlu)6-Ala-Tyr-Gly-Trp-Nle-Asp-Phe-NH2 [PP-F11N] | low accumulation | good uptake | good |
|  | DOTA-(DGln)6-Ala-Tyr-Gly-Trp-Nle-Asp-Phe-NH2 [PP-F10N, reference compound] | low accumulation | good uptake | good |
